Data as given in patent publication US20210009706A1 (JIANGSU HENGRUI MEDICINE, published 2021).

B1: mAb077-Fab (Fab, V domains shown)
VH: EVQLVESGGGLVQPGGSLRLSCAASGFTFSGYGIHWVRQAPGKGLEWIGWINPNRGSTKYAQKFQGRVTISRDNSKNTLYLQLNSLRAEDTAVYYCARDPGYTWYFDVWGQGTLVTVSS
VL: DIQLTQSPSSLSASVGDRVTITCRASQDISSDLAWYQQKPGKAPKLLIYAASTLQSGVPSRFSGSGSGTDFTLTISSLQPEDFATYYCQQRDAWPPTFGQGTKVEIK
notes: only the variable domains are tied to the Fab; also called mAb077 Fab fragment; mAb77
B2: 077N74T (antibody, V domains shown)
VH: EVQLVESGGGLVQPGGSLRLSCAASGFTFSGYGIHWVRQAPGKGLEWIGWINPNRGSTKYAQKFQGRVTISRDTSKNTLYLQLNSLRAEDTAVYYCARDPGYTWYFDVWGQGTLVTVSS
VL: DIQLTQSPSSLSASVGDRVTITCRASQDISSDLAWYQQKPGKAPKLLIYAASTLQSGVPSRFSGSGSGTDFTLTISSLQPEDFATYYCQQRDAWPPTFGQGTKVEIKR
notes: The light chain is the same as in mAb077; also called mutant molecule 077N74T; 077N74T antibody
B3: mAb077-IgG (antibody, V domains shown)
VH: EVQLVESGGGLVQPGGSLRLSCAASGFTFSGYGIHWVRQAPGKGLEWIGWINPNRGSTKYAQKFQGRVTISRDNSKNTLYLQLNSLRAEDTAVYYCARDPGYTWYFDVWGQGTLVTVSS
VL: DIQLTQSPSSLSASVGDRVTITCRASQDISSDLAWYQQKPGKAPKLLIYAASTLQSGVPSRFSGSGSGTDFTLTISSLQPEDFATYYCQQRDAWPPTFGQGTKVEIKR
notes: also called mAb77
B4: 1F5-IgG (antibody, V domains shown)
VH: QVQLVESGGGVVQPGRSLRLSCAASGFTFSSYDMHWVRQAPGKGLEWVAVIWYDGSNKYYADSVKGRFTISRDNSKNTLYLQMNSLRAEDTAVYYCARGSGNWGFFDYWGQGTLVTVSS
VL: DIQMTQSPSSLSASVGDRVTITCRASQGISRWLAWYQQKPEKAPKSLIYAASSLQSGVPSRFSGSGSGTDFTLTISSLQPEDFATYYCQQYNTYPRTFGQGTKVEIK

Key:
[1] = molecular target: T1, Human CD27-HisFc (human, UniProt P26842 21-192); assay: BLI (Octet RED96), CD27-HisFc captured on AHC sensor, Fab in solution, 1:1 Langmuir fit
T1 construct: Bought reagent; also called CD27-HisFc (Sino Biological #10039-H03H); human CD27-HisFc fusion protein; not shown: His tag and Fc
T1 sequence (looked up): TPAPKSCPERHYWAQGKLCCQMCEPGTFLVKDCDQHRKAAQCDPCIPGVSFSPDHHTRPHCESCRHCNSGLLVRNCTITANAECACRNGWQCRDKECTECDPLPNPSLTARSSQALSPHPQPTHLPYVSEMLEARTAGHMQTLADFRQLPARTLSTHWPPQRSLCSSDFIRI
From the text: The antibody Fab fragment of each unique sequence with addition of histidine tag at its C-terminus was overexpressed using E. coli expression system, and then purified by Ni-NTA affinity resin. […] The collected data was processed by Data Acquisition 7.1 software and fitted to a 1:1 Langmuir model curve. The antibody mAb077 with the best binding capacity was obtained by screening for further analysis and development experiments.

[2] = molecular target: T2, human CD27-his antigen (Yiqiao Shenzhou #10039-H08H) (human, UniProt P26842 21-192); assay: SPR (Biacore T200), antibody captured on protein A chip, CD27-his as analyte, 1:1 Langmuir fit
T2 construct: Bought reagent; also called huCD27-his (Sino Biological); not shown: His tag
T2 sequence (looked up): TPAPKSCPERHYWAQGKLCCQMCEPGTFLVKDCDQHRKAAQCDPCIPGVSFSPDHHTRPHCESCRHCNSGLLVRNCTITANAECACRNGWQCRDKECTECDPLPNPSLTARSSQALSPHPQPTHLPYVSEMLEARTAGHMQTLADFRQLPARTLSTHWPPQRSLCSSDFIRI
From the text: The protein A biosensor chip was used to affinity capture the antibody molecule to be tested, and then the human CD27-his antigen (Yiqiao Shenzhou #10039-H08H) of various gradient concentrations was flowed on the surface of the chip, and the reaction signal was detected in real time with the Biacore T200 instrument to obtain the association and dissociation curve. After the dissociation of each experimental cycle was completed, the biosensor chip was washed and regenerated with glycine-hydrochloric acid regeneration solution (pH 1.5). BIAevaluation version 4.1 and GE software were used to fit the data with a (1:1) Langmuir model, the affinity values were obtained as shown in the table below. The affinity of the mutant molecule 077N74T is slightly higher than that of the original mAb077 molecule but there is no significant difference.

[3] = molecular target: T3, Murine CD27-HisFc (murine, UniProt P41272 24-182, limits assumed); assay: BLI (Octet RED96), 1:1 Langmuir fit; format for IgG not described
T3 construct: not shown: His tag and Fc
T3 sequence (looked up): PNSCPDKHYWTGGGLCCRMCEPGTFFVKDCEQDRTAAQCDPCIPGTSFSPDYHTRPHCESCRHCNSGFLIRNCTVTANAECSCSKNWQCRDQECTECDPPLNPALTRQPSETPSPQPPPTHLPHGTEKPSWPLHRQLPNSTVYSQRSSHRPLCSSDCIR

[4] = molecular target: T1, Human CD27-HisFc; assay: as above
[5] = molecular target: Macaca CD27-Fc (Macaca); assay: as above
[6] = molecular target: T4, Human CD27-His (human, UniProt P26842 21-192); assay: as above
T4 construct: also called CD27-His (Sino Biological #10039-H08B1); not shown: His tag
T4 sequence (looked up): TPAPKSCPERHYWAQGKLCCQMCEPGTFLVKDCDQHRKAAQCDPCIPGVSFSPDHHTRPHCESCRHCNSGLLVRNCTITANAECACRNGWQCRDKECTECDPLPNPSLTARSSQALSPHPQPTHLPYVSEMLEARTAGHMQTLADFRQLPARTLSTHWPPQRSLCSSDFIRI

Row | Binder | Kd [2] [nM] | koff [2] [s⁻¹] | kon [2] [M⁻¹ s⁻¹] | Kd [5] [nM] | koff [5] [s⁻¹] | kon [5] [M⁻¹ s⁻¹] | also measured
1 | B1 |  |  |  |  |  |  | Kd [1]: 4.08 nM; koff [1]: 0.00121 s⁻¹; kon [1]: 296000 M⁻¹ s⁻¹
2 | B2 | 0.261 | 6.75e-05 | 259000 |  |  |  | 
3 | B3 | 0.335 | 8.34e-05 | 249000 | 0.562 | 4.26e-05 | 75800 | Kd [3]: 0.0304 nM; koff [3]: 1.33e-05 s⁻¹; kon [3]: 438000 M⁻¹ s⁻¹; Kd [4]: 0.137 nM; koff [4]: 2.17e-05 s⁻¹; kon [4]: 158000 M⁻¹ s⁻¹
4 | B4 |  |  |  | 2.13 | 0.000243 | 114000 | Kd [6]: 1.39 nM; koff [6]: 9.15e-05 s⁻¹; kon [6]: 65800 M⁻¹ s⁻¹
